Key:
A. baumannii = experiment: MIC, broth microdilution; type: cell-based, Acinetobacter baumannii
Procedure: (§1) The MIC of the LNT113 or antibiotic was determined using modification of the broth microdilution method in a 96-well, round bottom, microplate according to the previously described method (Heselpoth et al., 2019). Exponentially grown cells were diluted to a concentration of 10^6 CFU/ml in a CAA medium, and then cultured with recombinant LNT113 (1-64 μg/ml) or antibiotics at 35° C. for 20 hours. […] The MBC was defined as the lowest concentration of the antibacterial agent with no growth on a plate. All analyses were performed in duplicate.

K. acrogenes = experiment: MIC, broth microdilution; type: cell-based, Klebsiella aerogenes
Procedure: as §1

[1] = tested on: various gram-negative bacterium; experiment: MIC, summary over Table 4 strains; type: cell-based; conditions: strains of Table 4
Procedure: as §1

E. coli [2] = experiment: Checkerboard assay (MIC in combination, FIC index); type: cell-based, Escherichia coli
Procedure: LNT113 was vertically diluted 2-fold and the antibiotic was serially diluted horizontally in a 96-well plate. Bacterium at a concentration of 10^6 CFU/ml were added to each well in a CAA medium. […] The fractional inhibitory concentration (FIC) for the LNT113 or antibiotic was calculated by dividing the MIC of two drugs by combining it with the MIC of each drug alone. […] The FICI was considered as a synergistic effect ≤0.5, an additive >0.5 ˜≤1, an independent effect (indifference)>1.0 ˜≤2, and an antagonistic effect (antagonism) >2.

E. coli [3] = experiment: Antibacterial activity analysis (colony count after 2 hours in buffer); type: cell-based, Escherichia coli
Procedure: The antibacterial activity of the purified protein was tested for E. coli and various K. pneumoniae strains. The bacterium were grown to an exponential phase (OD600=0.5) and harvested by centrifugation at 12,000×g for 3 minutes. Then, the pellets were washed with reaction buffer solution (20 mM Tris-HCl, pH 7.5) and diluted to about 10^6 cells/ml in the buffer solution. Then, 100 μl bacterial suspension was mixed with the purified endolysin of 100 μl in the reaction buffer solution and incubated at 37° C. for 2 hours. Finally, the mixture was diluted with PBS and loaded on an LB plate. After culturing at 37° C. overnight, the bacterial colonies were counted. All the analysis was performed in triplicate.
The same reaction was performed for the selected subject bacterium in 20 mM HEPES-NaOH, 150 mM NaCl [pH 7.4], and the unique antibacterial activity of Tris and dependence of endolysin for turgor pressure were excluded (FIG. 10a and FIG. 10b). […] The bacterial cells grown geometrically were cultured with 2 μM endolysin in low tonicity buffers (20 mM Tris-HCl, pH 7.5 or 20 mM HEPES, pH 7.5) or high tonicity buffers (buffer solution comprising 150 mM NaCl) at 37° C. for 2 hours. The cells treated with storage buffer solution (20 mM Tris-HCl, pH 7.5, 150 mM NaCl buffer solution (pH 7.5)) were used as a negative control group. The dotted line represents the detection limit (1 Log CFU/ml).
For this, endolysin EC340 at a concentration of 2 μM and each test bacterium were added to reaction buffer (20 mM Tris-Cl, pH 7.5) so that the final concentration was to be 200 μl, and were left at 37° C. for 2 hours. After 2 hours, the number of colonies of Acinetobacter baumannii, Pseudomonas aeruginosa and Escherichia coli was confirmed, and the result was shown in FIG. 3.

E. coli ATCC 8739 = experiment: 1-N-phenylnaphthylamine (NPN) absorption analysis, outer membrane permeability; type: cell-based, Escherichia coli; conditions: 2 μM
Procedure: NPN absorption analysis was performed by the previously described method (Helander and Mattila-Sandholm, 2000). In other words, E. coli ATCC 8739 grown to an exponential phase (OD600=0.4) was washed and resuspended with buffer solution (5 mM HEPES, pH 7.2) to about 10^8 cells/ml. 40 μM NPN (Sigma-Aldrich) 50 μl was mixed with the purified endolysin or Cecropin A (AbClon, Korea) 50 μl so that the final concentration was 2 μM in a 96-well black plate. Outer membrane permeation agents, 1 mM EDTA (Duchefa) and 2 μM Polymyxin B (Sigma-Aldrich) were used as a positive control group. Then, cell suspension 100 μl was added to each well, and cultured at 37° C. for 5 minutes. Buffer alone, buffer+NPN, cell suspension+buffer and cell suspension+buffer+NPN were used as a negative control group. Fluorescence was measured at excitation (350 nm) and emission (420 nm) using a microplate reader (SpectraMax iD3, Molecular Devices, USA). An NPN absorption factor was calculated by dividing the fluorescence value after background removal (the value that the value without NPN subtracted from the fluorescence value of the cell mixture with the sample) with the fluorescence value of the cell suspension with buffer subtracted from the fluorescence value of buffer without NPN.

B1: LNT113: fusion polypeptide: Cecropin A, (GGGGS)3 linker, mutant endolysin mtEC340; recombinant form with C-terminal His tag (protein)
chain: MKWKLFKKIEKVGQNIRDGIIKAGPAVAVVGQATQIAKGGGGSGGGGSGGGGSVSRNISNNGIKFTAAFEGFRGTAYRATPNEKYLTIGYGSYGPHVEPGKTITPGQGLLLLNRDMAKAVAAVDAVAHHSLTQSQFDAVCDLVYNAGAGVIAAATGTGKALRSGDVATLRAKLALFINQNGKPLLGLRRRTAGRLALFDGKPWQEAEAIGRAVKG
modifications: synthetic_Met+Cecropin A+GGGGS3 linker+mtEC340
notes: fusion polypeptide: Cecropin A, (GGGGS)3 linker, mutant endolysin mtEC340; recombinant form with C-terminal His tag
A. baumannii; A. baumannii ATCC (first ATCC line, number not given)
  MIC: 8 µg/mL
A. baumannii; A. baumannii ATCC (second ATCC line, number not given)
  MIC: 16 µg/mL
A. baumannii; A. baumannii CCARM
  MIC: 8 µg/mL
A. baumannii; A. baumannii F4
  MIC: 4 µg/mL
A. baumannii; A. baumannii F65
  MIC: 8 µg/mL
A. baumannii; A. baumannii F66
  MIC: 8 µg/mL
A. baumannii; A. baumannii F67
  MIC: 8 µg/mL
K. acrogenes; K. acrogenes CCARM 16006
  MIC: 16 µg/mL
K. acrogenes; K. acrogenes CCARM 16008
  MIC: 8 µg/mL
K. acrogenes; K. acrogenes CCARM 16010
  MIC: 8 µg/mL
[1]
  MIC range: 4 to 32 µg/mL
E. coli [2]; E. coli ATOCB739, Colistin 0
  MIC of endolysin combined with colistin: LNT113: 8 µg/mL
E. coli [2]; E. coli ATOCB739, Colistin 0.0625
  MIC of endolysin combined with colistin: LNT113: 4 µg/mL
E. coli [2]; E. coli ATOCB739, Colistin 0.5
  MIC of endolysin combined with colistin: LNT113: 2 µg/mL
E. coli [2]; E. coli ATOCB739, Colistin 1
  MIC of endolysin combined with colistin: LNT113: 1 µg/mL
E. coli [2]; E. coli FORC81, Colistin 0
  MIC of endolysin combined with colistin: LNT113: 8 µg/mL
E. coli [2]; E. coli FORC81, Colistin 1
  MIC of endolysin combined with colistin: LNT113: 4 µg/mL
E. coli [2]; E. coli FORC81, Colistin 4
  MIC of endolysin combined with colistin: LNT113: 2 µg/mL
E. coli [2]; E. coli FORC81, Colistin 8
  MIC of endolysin combined with colistin: LNT113: <0.25 µg/mL
E. coli [2]; E. coli UPEC3150, Colistin 0
  MIC of endolysin combined with colistin: LNT113: 8 µg/mL
E. coli [2]; E. coli UPEC3150, Colistin 0.0625
  MIC of endolysin combined with colistin: LNT113: 4 µg/mL
E. coli [2]; E. coli UPEC3150, Colistin 0.5
  MIC of endolysin combined with colistin: LNT113: 2 µg/mL
E. coli [2]; E. coli UPEC3150, Colistin 2
  MIC of endolysin combined with colistin: LNT113: 1 µg/mL
E. coli [3]; E. coli ATCC8739, ATCC25922, CCARM1A746, CCARM1B684, 2 μM, 2 hours, Tris-HCl pH 7.5
  antibacterial activity (number of bacterium): more excellent antibacterial activity
E. coli [3]; E. coli ATCC 8739, 2 μM, Tris or Hepes buffer with 150 mM NaCl
  effect of adding NaCl on antibacterial activity: negative effect of salt presence was significantly reduced
E. coli [3]; E. coli ATCC 8739, 0.1-2.7 μM, 0.5 μM over time
  dose and time dependence of antibacterial activity: antibacterial activity according to dose and time
E. coli [3]; E. coli ATCC8739, final concentration of 0.5 mM
  antibacterial activity compared to Cecropin A and/or mtEC340: enhanced antibacterial activity
E. coli [3]; E. coli strains, 2 μM, 2 hours
  increase in activity compared to mtEC340: ≤ 4 log
E. coli [3]; all tested E. coli strains, 2 μM
  viable bacterial cells after culturing for 2 hours: No viable bacterial cells were detected
E. coli [3]; colistin-resistant E. coli FORC81, 2 μM, 2 hours
  amount of bacterial cells after treatment: below the detection limit
E. coli ATCC 8739
  increase of membrane penetration (NPN): 1.8 times
  membrane penetration relative to cecropin A alone (NPN): 1.3 fold

— patent US12102667B2, “Polypeptides and antibiotics against gram-negative bacterium comprising the same” (priority 2021, dated 2024)
